{
  "source": "patent US20110212853A1",
  "about": "“NOVEL DIAGNOSTIC METHOD” (PROBIODRUG AG, priority 2010, published 2011)",
  "key": {"[1]": {"test_system": "DP4 or a DP4-like activity in human serum", "experiment": "Degradation of Gln1-MCP-1 in human serum in presence of DP4 inhibitor", "format": "biochemical", "conditions": "9.6 μM inhibitor, 24 h, FIG. 7C", "protocol": "(§1) For cyclization of the N-terminal glutamine residue into pyroglutamate, MCP-1 was incubated with recombinant human QC for 3 h prior to assay start. In addition, Gln^1-MCP-1 was incubated in human serum in the presence of 9.6 μM DP4 Inhibitor Isoleucyl-Thiazolidide (P32/98) for 24 h (C). The cleavage products were analyzed after 0 min, 10 min, 30 min, 1 h, 2 h, 3 h 5 h and 7 h for Gln^1-MCP-1, 0 min, 30 min, 1 h, 2 h, 3 h 5 h, 7 h and 24 h for pGlu^1-MCP-1 and 0 min, 1 h, 2 h, 3 h, 5 h, 7 h and 24 h for Gln^1-MCP-1 in combination with Isoleucyl-Thiazolidide using Maldi-TOF mass spectrometry.\n(§2) Human recombinant MCP-1 carrying an N-terminal glutaminyl residue (Peprotech) was dissolved in 25 mM Tris/HCl, pH 7.6, in a concentration of 100 μg/ml. MCP-1 was either pre-incubated with recombinant human QC (0.006 mg/ml) for 3 h at 30° C. and subsequently incubated with human serum at 30° C. or incubated with human serum without addition of QC. The cleavage products were analyzed using Maldi-TOF mass spectrometry after 0 min, 10 min, 30 min, 1 h, 2 h, 3 h 5 h and 7 h for Gln^1-MCP-1 and 0 min, 30 min, 1 h, 2 h, 3 h 5 h, 7 h and 24 h for pGlu^1-MCP-1."}, "[2]": {"experiment": "N-terminal degradation of human MCP-1 in human serum, Maldi-TOF mass spectrometry", "format": "in vitro ADME", "protocol": "as §1\nMatrix-assisted laser desorption/ionization mass spectrometry was carried out using the Voyager De-Pro (Applied Biosystems, Darmstadt) with a linear time of flight analyzer. The instrument was equipped with a 337 nm nitrogen laser, a potential acceleration source and a 1.4 m flight tube. Detector operation was in the positive-ion mode. Samples (5 μl) were mixed with equal volumes of the matrix solution. For matrix solution sinapinic acid was used, prepared by solving 20 mg sinapinic acid (Sigma-Aldrich) in 1 ml acetonitrile/0.1% TFA in water (1/1, v/v). A small volume (≈1 μl) of the matrix-analyte-mixture was transferred to a probe tip.\nas §2"}, "human THP-1 monocytes": {"test_system": "human THP-1 monocytes", "experiment": "TransWell chemotaxis assay", "format": "cell-based", "conditions": "for MCP-1 concentrations needed to elicit the maximum response: after incubation with human DP4, with (pGlu^1) or without (Gln^1) QC pre-incubation, FIG. 12; for influence of pGlu-formation at the N-terminus on chemotactic potency: compared to the respective glutamine-precursors, FIG. 11; for chemotactic potency of N-truncated DP4 cleavage products: truncation by 2 amino acids, FIG. 13", "protocol": "The chemotaxis assay was performed using 24 well TransWell plates with a pore size of 5 μm (Corning). THP-1 cells were suspended in RPMI1640 in a concentration of 1*10^6 cells/100 μl and applied in 100 μl aliquots to the upper chamber. Cells were allowed to migrate towards the chemoattractant for 2 h at 37° C. Subsequently, cells from the upper chamber were discarded and the lower chamber was mixed with 50 μl 70 mM EDTA in PBS and incubated for 15 min at 37° C. to release cells attached to the membrane. Afterwards, cells migrated to the lower chamber were counted using a cell counter system (Schärfe System). The chemotactic index was calculated by dividing cells migrated to the stimulus from cells migrated to the negative control.\nMCP-1 starting with glutamine 1 (Gln^1-MCP-1) (Peprotech) was incubated with recombinant human QC to generate pGlu^1-MCP-1, or with human recombinant DP4 to generate Asp^3-MCP-1. Concentrations of 1, 5, 10, 50, 100, 500 and 1000 ng/ml of the generated MCP-1 variants were tested using the THP-1 chemotaxis assay (n=3).\nMCP-1 with N-terminal glutamine (Gln^1-MCP-1) (Peprotech) was incubated with recombinant human QC and DP4 (Gln^1-MCP-1+QC+DP4), human recombinant DP4 alone (Gln^1-MCP+DP4) and with recombinant human QC in combination with 10 μM of QC-inhibitor 1-(3-(1H-imidazol-1-yl)propyl)-3-(3,4-dimethoxyphenyl)thiourea hydrochloride and DP4 (Gln^1-MCP-1+QC+QCI+DP4). Concentrations of 1, 5, 10, 50, 100, 500 and 1000 ng/ml of generated MCP-1 variants were tested using chemotaxis assay (n=3).\nConcentrations of 1, 5, 10, 50, 100, 500 and 1000 ng/ml of a particular MCP were tested using chemotaxis assay (n=3).\nFor the generation of the DP4 cleavage product, the respective MCPs were incubated with human recombinant DP4 at a 1:100 dilution for 2 h at 30° C. prior to assay. Concentrations of 1, 5, 10, 50, 100, 500 and 1000 ng/ml of a particular MCP were tested using chemotaxis assay (n=3)."}, "MCP-1 receptors": {"target": "MCP-1 receptors (Homo sapiens, UniProt P41597)", "sequence (P41597 whole entry)": "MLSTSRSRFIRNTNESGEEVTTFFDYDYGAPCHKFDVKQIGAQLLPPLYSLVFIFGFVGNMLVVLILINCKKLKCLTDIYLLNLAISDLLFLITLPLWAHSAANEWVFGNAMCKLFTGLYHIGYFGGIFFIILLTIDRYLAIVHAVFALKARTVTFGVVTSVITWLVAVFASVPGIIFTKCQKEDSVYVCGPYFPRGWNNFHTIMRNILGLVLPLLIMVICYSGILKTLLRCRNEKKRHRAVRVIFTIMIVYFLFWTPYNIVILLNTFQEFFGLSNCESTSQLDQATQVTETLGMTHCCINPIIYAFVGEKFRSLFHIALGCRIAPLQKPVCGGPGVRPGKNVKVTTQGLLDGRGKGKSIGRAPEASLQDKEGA", "conditions": "cited from earlier work"}, "recombinant human DP4": {"target": "recombinant human DP4 (Homo sapiens, UniProt P27487)", "sequence (P27487 whole entry, the tested form may be a part)": "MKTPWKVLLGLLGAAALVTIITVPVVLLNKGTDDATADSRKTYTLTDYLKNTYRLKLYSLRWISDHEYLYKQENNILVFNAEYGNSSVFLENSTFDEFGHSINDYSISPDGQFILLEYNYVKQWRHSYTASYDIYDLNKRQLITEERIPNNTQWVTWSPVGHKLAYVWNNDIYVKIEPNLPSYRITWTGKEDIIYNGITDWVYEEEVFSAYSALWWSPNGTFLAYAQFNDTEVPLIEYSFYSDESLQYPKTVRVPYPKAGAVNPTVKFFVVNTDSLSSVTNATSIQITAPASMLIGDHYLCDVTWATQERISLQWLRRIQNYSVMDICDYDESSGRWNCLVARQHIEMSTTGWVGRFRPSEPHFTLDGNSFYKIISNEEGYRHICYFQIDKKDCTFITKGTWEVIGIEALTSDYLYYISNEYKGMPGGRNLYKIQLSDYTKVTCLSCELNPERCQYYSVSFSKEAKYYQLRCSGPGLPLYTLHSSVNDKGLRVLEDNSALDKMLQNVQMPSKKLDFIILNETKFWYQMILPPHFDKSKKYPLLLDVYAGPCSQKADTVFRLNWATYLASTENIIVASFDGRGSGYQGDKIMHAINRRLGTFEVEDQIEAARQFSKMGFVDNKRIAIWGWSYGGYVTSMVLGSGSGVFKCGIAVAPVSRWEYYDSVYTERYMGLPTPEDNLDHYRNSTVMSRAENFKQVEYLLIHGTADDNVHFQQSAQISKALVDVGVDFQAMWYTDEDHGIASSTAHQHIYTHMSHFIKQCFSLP", "experiment": "N-terminal degradation of human MCP-2, MCP-3 and MCP-4 by DP4, Maldi-TOF mass spectrometry", "format": "in vitro ADME", "conditions": "for truncation by DP4 of uncyclized variants starting with N-terminal glutamine: recombinant human DP4, 30° C.; for proteolytic degradation by DP4 with N-terminal pGlu-residue: pre-incubated with recombinant human QC 3 h, then DP4", "protocol": "Resulting DP4 cleavage products were analyzed using Maldi-TOF mass spectrometry after 0 min, 15 min, 30 min, 1 h, 2 h, 4 h and 24 h.\n(§3) MCP-3 was either pre-incubated with recombinant human QC (0.0006 mg/ml) for 3 h at 30° C. and subsequently incubated with recombinant human DP4 (0.00012 mg/ml) at 30° C. or incubated with recombinant human DP4 (0.00012 mg/ml) without prior QC application. Resulting DP4 cleavage products were analyzed using Maldi-TOF mass spectrometry after 0 min, 15 min, 30 min, 1 h, 2 h, 4 h and 24 h.\nas §3, with “MCP-4” for “MCP-3”, “(0.00006” for “(0.00012”"}, "[3]": {"conditions": "incubation with human serum without QC pre-incubation, FIG. 7A"}},
  "data": [
    {"compound": "CCC(C)C(N)C(=O)N1CCSC1", "note": "(stereo not shown) [Isoleucyl-Thiyzolidide, Isoleucyl-Thiazolidide]", "values": [
      {"measurement": "N-terminal degradation of MCP-1 in serum", "setting": "[1]", "result": "prevents the N-terminal degradation"}
    ]},
    {"compound": "Gln1-MCP-1: Recombinant human MCP-1(1-76) (SEQ ID NO: 1) starting with an N-terminal glutamine (Peprotech)", "values": [
      {"measurement": "final ratio, full-length pGlu1-MCP-1", "setting": "[2]; [3]", "result": "~40", "unit": "%"},
      {"measurement": "final ratio, truncated Asp3-MCP-1", "setting": "[2]; [3]", "result": "approx. 60%"},
      {"measurement": "MCP-1 concentrations needed to elicit the maximum response", "setting": "human THP-1 monocytes", "result": "500 to 1000", "unit": "ng/mL"}
    ]},
    {"compound": "MCP-1, 1-10: peptide corresponding to MCP-1, 1-10 (QPDAINAPVT; UniProt P13500 24-33, looked up, fragment) [reference compound]", "values": [
      {"measurement": "receptor-binding activities", "setting": "MCP-1 receptors", "result": "lacked detectable receptor-binding activities"}
    ]},
    {"compound": "MCP-1: monocyte chemotactic protein-1, CCL2; form in the cited binding study not stated", "values": [
      {"measurement": "Kd", "setting": "MCP-1 receptors", "result": 2.8, "unit": "nM"}
    ]},
    {"compound": "MCP-2: Human recombinant MCP-2 (SEQ ID NO: 11) carrying an N-terminal glutaminyl residue (Peprotech)", "values": [
      {"measurement": "truncation by DP4 of uncyclized variants starting with N-terminal glutamine", "setting": "recombinant human DP4", "result": "readily truncated"},
      {"measurement": "influence of pGlu-formation at the N-terminus on chemotactic potency", "setting": "human THP-1 monocytes", "result": "no influence"},
      {"measurement": "chemotactic potency of N-truncated DP4 cleavage products", "setting": "human THP-1 monocytes", "result": "partial inactivation"}
    ]},
    {"compound": "MCP-3: Human recombinant MCP-3 (SEQ ID NO: 12) carrying an N-terminal glutaminyl residue (Peprotech)", "values": [
      {"measurement": "proteolytic degradation by DP4 with N-terminal pGlu-residue", "setting": "recombinant human DP4", "result": "protects"},
      {"measurement": "truncation by DP4 of uncyclized variants starting with N-terminal glutamine", "setting": "recombinant human DP4", "result": "readily truncated"},
      {"measurement": "influence of pGlu-formation at the N-terminus on chemotactic potency", "setting": "human THP-1 monocytes", "result": "no influence"},
      {"measurement": "chemotactic potency of N-truncated DP4 cleavage products", "setting": "human THP-1 monocytes", "result": "partial inactivation"}
    ]},
    {"compound": "MCP-4: Human recombinant MCP-4 (SEQ ID NO: 13) carrying an N-terminal glutaminyl residue (Peprotech)", "values": [
      {"measurement": "proteolytic degradation by DP4 with N-terminal pGlu-residue", "setting": "recombinant human DP4", "result": "protects"},
      {"measurement": "truncation by DP4 of uncyclized variants starting with N-terminal glutamine", "setting": "recombinant human DP4", "result": "readily truncated"},
      {"measurement": "influence of pGlu-formation at the N-terminus on chemotactic potency", "setting": "human THP-1 monocytes", "result": "slightly increases"},
      {"measurement": "chemotactic potency of N-truncated DP4 cleavage products", "setting": "human THP-1 monocytes", "result": "partial inactivation"}
    ]},
    {"compound": "pGlu1-MCP-1: human MCP-1 with N-terminal pyroglutamic acid, generated by incubation of Gln1-MCP-1 with recombinant human QC", "values": [
      {"measurement": "degradation in human serum", "setting": "[2]; pre-incubation with human QC, chosen time-frame (24 h) and dilution of the serum, FIG. 7B", "result": "no degradation"},
      {"measurement": "MCP-1 concentrations needed to elicit the maximum response", "setting": "human THP-1 monocytes", "result": "50 to 100", "unit": "ng/mL"}
    ]}
  ]
}
